Results: PMC9692665 (2022)

Target: Echovirus 3 (E3) mature full (F-) particle, genotype HNWY-01 strain (Echovirus 3 (genotype HNWY-01 strain))
Experiment: SPR

B1: monoclonal antibody 6D10 IgG (antibody, V domains shown)
VH: EVQLQQSGPELARPWASVKISCQAFYTFSNYGMQWVKQSPGQGLEWIGPFYPGNADTSYNQKFKGKATLTADKSSSTAYMQFSSLTSEDSAVYYCARVVATTDFDYWGQGTTVTVSS
VL: not shown
koff: 5.1e-05 s⁻¹
